In publication PMC13393422, “Cross-regulation of amino acid synthesis and anaerobic electron transfer by MetR-mediated methionine signaling”:

T1: MetR (C-his-MetR) (Shewanella oneidensis MR-1, UniProt Q8EIM1 1-301)
T1 sequence: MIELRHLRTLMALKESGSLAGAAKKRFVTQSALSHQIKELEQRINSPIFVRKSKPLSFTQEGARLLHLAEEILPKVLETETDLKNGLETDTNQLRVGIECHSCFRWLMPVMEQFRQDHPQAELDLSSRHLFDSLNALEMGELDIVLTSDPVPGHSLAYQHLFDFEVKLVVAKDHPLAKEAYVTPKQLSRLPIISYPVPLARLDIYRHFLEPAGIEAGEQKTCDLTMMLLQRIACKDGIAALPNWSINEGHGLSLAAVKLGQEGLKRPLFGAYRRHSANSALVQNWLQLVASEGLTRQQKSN


How the values were obtained:
MetR (C-his-MetR) [1] = biological target: T1, MetR (C-his-MetR); experiment: EMSA; 4 mM hCys; 500 ng MetR; 50 mM Tris-HCl pH 8.0, 0.5 mM EDTA, 2 mM MgSO4, 1 mM DTT, 100 ug/mL BSA, 10 ug/mL poly(dI-dC), 4 mM hCys, 20% glycerol, 1 nM Cy3 probe, 20 uL; 20 C 10 min; gel; conditions: protein: recombinant, tags: C-terminal His tag (pET-26b(+), NdeI/XhoI), chain copies: 4, label: 5'-Cy3 on strand 2
MetR (C-his-MetR) [2] = biological target: T1, MetR (C-his-MetR); experiment: EMSA; 4 mM hCys; 0-250 ng MetR (4B), 500 ng (4C); 50 mM Tris-HCl pH 8.0, 0.5 mM EDTA, 2 mM MgSO4, 1 mM DTT, 100 ug/mL BSA, 10 ug/mL poly(dI-dC), 4 mM hCys, 20% glycerol, 1 nM Cy3 probe, 20 uL; 20 C 10 min; gel; conditions: protein: recombinant; tags: C-terminal His tag (pET-26b(+), NdeI/XhoI); chain copies: 4; label: 5'-Cy3 on strand 2; blunt
MetR (C-his-MetR) [3] = biological target: T1, MetR (C-his-MetR); experiment: competition; 4 mM hCys; 5,000-fold excess over labeled omcA probe, shift disappeared; 50 mM Tris-HCl pH 8.0, 0.5 mM EDTA, 2 mM MgSO4, 1 mM DTT, 100 ug/mL BSA, 10 ug/mL poly(dI-dC), 4 mM hCys, 20% glycerol, 1 nM Cy3 probe, 20 uL; 20 C 10 min; gel; conditions: protein: recombinant; tags: C-terminal His tag (pET-26b(+), NdeI/XhoI); chain copies: 4; label: none; blunt

Row | Binder | binding result (MetR (C-his-MetR) [1]; blunt) | further results
1 | metR probe (dsDNA) DNA 1: GATTTCAAGCGCAACATGAGCGAAATTCACTTGGAGTGATC DNA 2: GATCACTCCAAGTGAATTTCGCTCATGTTGCGCTTGAAATC | binds | –
2 | dmsE probe (dsDNA) DNA 1: CTTATGGTGTTTTTGAGAATGATTTTCTTTTATTTGATTTC DNA 2: GAAATCAAATAAAAGAAAATCATTCTCAAAAACACCATAAG | binds | –
3 | omcA probe (dsDNA) DNA 1: CCACACATTAAATACGACTAATGAGATTTGTTCTTATTTG DNA 2: CAAATAAGAACAAATCTCATTAGTCGTATTTAATGTGTGG | – | binding result (MetR (C-his-MetR) [2]): binds
4 | omcA probe, unlabeled competitor (dsDNA) DNA 1: CCACACATTAAATACGACTAATGAGATTTGTTCTTATTTG DNA 2: CAAATAAGAACAAATCTCATTAGTCGTATTTAATGTGTGG | – | binding result (MetR (C-his-MetR) [3]): binds
5 | cymA probe (dsDNA) DNA 1: GTATTAGCTGGAGTTGAAGTACTCTAACGCTCTGCTAAGC DNA 2: GCTTAGCAGAGCGTTAGAGTACTTCAACTCCAGCTAATA | – | binding result (MetR (C-his-MetR) [1]; 5' overhang 1 nt on strand 1 as printed (strand 2 is 39 nt; text says 40 bp)): binds
6 | omcA-m probe (dsDNA) DNA 1: CCACACATTAAATACGACTAAGGGGATTTGGGGGTATTTG DNA 2: CAAATACCCCCAAATCCCCTTAGTCGTATTTAATGTGTGG | no binding | –
7 | luxS probe (dsDNA) DNA 1: GCATCTGACTGATATGAGATGATTTCATCTTAAGTTATC DNA 2: GATAACTTAAGATGAAATCATCTCATATCAGTCAGATGC | binds | –
8 | glyA probe (dsDNA) DNA 1: CTCAACTCGGCATTGAGGTGCATTCAAGTTAAAACTGTAG DNA 2: CTACAGTTTTAACTTGAATGCACCTCAATGCCGAGTTGAG | binds | –
